# Measured values as given in patent publication US20250289905A1 (MIRIMGENE, published 2025).
# Where a chain is given by its changes, count along the chain named. In names and notes the source's numbering stands.
# B1: H54F (antibody, V domains shown)
# VH: EVQLLESGGGLVQPGGSLRLSCAASGFTFSSYDMSWVRQAPGKGLEWVSAISSGGSSIYYADSVKGRFTISRDNSKNTLYLQMNSLRAEDTAVYYCARDVAWDMLGDFDYWGQGTLVTVSS
# VL: QSVLTQPPSASGTPGQRVTISCTGSSSNIGSNYVYWYQQLPGTAPKLLIYANSFRPSGVPDRFSGSKSGTSASLAISGLRSEDEADYYCGAWDDSLSAYVFGGGTKLTVLT
# notes: L-CDR2 variant of GKB101; also called H54F antibody
# B2: S53T (antibody, V domains shown)
# VH: B1 VH
# VL: B1 VL with S53T, F54H
# notes: L-CDR2 variant of GKB101; also called S53T antibody
# B3: SH/IL (antibody, V domains shown)
# VH: B1 VH
# VL: B1 VL with S53I, F54L
# notes: L-CDR2 variant of GKB101; also called SH/IL antibody
# B4: S53V (antibody, V domains shown)
# VH: B1 VH
# VL: B1 VL with S53V, F54H
# notes: L-CDR2 variant of GKB101; also called S53V antibody
# B5: H54L (antibody, V domains shown)
# VH: B1 VH
# VL: B1 VL with F54L
# notes: L-CDR2 variant of GKB101; also called H54L antibody
# B6: SH/LL (antibody, V domains shown)
# VH: B1 VH
# VL: B1 VL with S53L, F54L
# notes: L-CDR2 variant of GKB101; also called SH/LL antibody
# B7: H54I (antibody, V domains shown)
# VH: B1 VH
# VL: B1 VL with F54I
# notes: L-CDR2 variant of GKB101; also called H54I antibody
# B8: H54Q (antibody, V domains shown)
# VH: B1 VH
# VL: B1 VL with F54Q
# notes: L-CDR2 variant of GKB101; also called H54Q antibody
# B9: SH/QL (antibody, V domains shown)
# VH: B1 VH
# VL: B1 VL with S53Q, F54L
# notes: L-CDR2 variant of GKB101; also called SH/QL antibody
# B10: SHL/LLN (antibody, V domains shown)
# VH: B1 VH
# VL: B1 VL with S53L, F54L, L96N
# notes: L-CDR2 and L-CDR3 variant of GKB101; also called SHL/LLN antibody
# B11: H54K (antibody, V domains shown)
# VH: B1 VH
# VL: B1 VL with F54K
# notes: L-CDR2 variant of GKB101; also called H54K antibody; M105A
# B12: SHL/ILN (antibody, V domains shown)
# VH: B1 VH
# VL: B1 VL with S53I, F54L, L96N
# notes: L-CDR2 and L-CDR3 variant of GKB101; also called SHL/ILN antibody
# B13: S53Q (antibody, V domains shown)
# VH: B1 VH
# VL: B1 VL with S53Q, F54H
# notes: L-CDR2 variant of GKB101; also called S53Q antibody
# B14: S53L (antibody, V domains shown)
# VH: B1 VH
# VL: B1 VL with S53L, F54H
# notes: L-CDR2 variant of GKB101; also called S53L antibody
# B15: GKB101 (antibody, V domains shown)
# VH: B1 VH
# VL: B1 VL with F54H
# notes: Parent antibody; expressed in Expi293 cells; also called GKB101 antibody; anti-WARS1 antibody
# B16: S53I (antibody, V domains shown)
# VH: B1 VH
# VL: B1 VL with S53I, F54H
# notes: L-CDR2 variant of GKB101; also called S53I antibody
# Biological target: T1, human WARS1 recombinant protein (human, UniProt P23381 2-471, limits assumed)
# T1 construct: Recombinant protein, detected with an anti-His tag antibody; In the western blot also secreted WARS1 from THP-1 supernatant and human serum; also called human-derived WARS1 recombinant protein
# T1 sequence: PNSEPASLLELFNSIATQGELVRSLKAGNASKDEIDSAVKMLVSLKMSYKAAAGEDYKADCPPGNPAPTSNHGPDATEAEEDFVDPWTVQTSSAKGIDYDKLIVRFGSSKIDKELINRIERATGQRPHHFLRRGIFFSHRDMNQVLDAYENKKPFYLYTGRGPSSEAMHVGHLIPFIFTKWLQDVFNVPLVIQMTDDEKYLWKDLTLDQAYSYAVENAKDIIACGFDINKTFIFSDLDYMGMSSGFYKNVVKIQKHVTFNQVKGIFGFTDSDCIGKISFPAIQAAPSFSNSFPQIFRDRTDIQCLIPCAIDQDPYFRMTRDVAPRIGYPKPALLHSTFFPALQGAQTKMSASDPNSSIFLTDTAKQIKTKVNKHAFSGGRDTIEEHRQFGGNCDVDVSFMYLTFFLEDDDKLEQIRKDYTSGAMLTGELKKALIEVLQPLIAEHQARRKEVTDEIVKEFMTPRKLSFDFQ
# Assay: western blot; recombinant protein, THP-1 culture supernatant, human serum
# Protocol: (§1) At this time, a WARS1 recombinant protein (human, mouse, pig, marmoset (NHP), or rat-derived), cell culture medium, and human or mouse serum were used as WARS1 protein samples. In particular, the cell culture medium was used by treating the human monocyte cell line, THP-1, or the mouse macrophage cell line, J774.1A, with LPS (lipopolysaccharide, 100 ng/ml) for 24 hours to induce an inflammatory response, and then the cell culture supernatant was obtained for use.
# (§2) 30 μg of each of the WARS1 recombinant protein (human, mouse, pig, marmoset (NHP), or rat-derived), the cell supernatant obtained using the method above, and mouse or human serum was loaded onto 8% SDS-PAGE, then transferred to a PVDF membrane (Millipore). Afterwards, the membrane was reacted with 1 μg/ml of GKB101 or a variant antibody thereof for 1 hour each, then washed with TBST (TBS+Tween20) three times. Afterwards, it was reacted with a secondary antibody (anti-human IgG HRP, Millipore) for 1 hour, then washed with TBST three times to be treated with ECL (West® bright ECL, Advanta) to identify its protein expression (LAS-4000, Fujifilm).
row,binding result,Binder
1,binds,B1
2,binds,B2
3,binds,B3
4,binds,B4
5,binds,B5
6,binds,B6
7,binds,B7
8,binds,B8

# Biological target: T2, mouse-derived WARS1 recombinant protein (mouse, UniProt P32921 1-481, limits assumed)
# T2 construct: Recombinant, His-tagged (detected with anti-His tag antibody); construct not described; In the western blot also secreted WARS1 from J774A.1 supernatant and mouse serum; also called mouse WARS1
# T2 sequence (looked up): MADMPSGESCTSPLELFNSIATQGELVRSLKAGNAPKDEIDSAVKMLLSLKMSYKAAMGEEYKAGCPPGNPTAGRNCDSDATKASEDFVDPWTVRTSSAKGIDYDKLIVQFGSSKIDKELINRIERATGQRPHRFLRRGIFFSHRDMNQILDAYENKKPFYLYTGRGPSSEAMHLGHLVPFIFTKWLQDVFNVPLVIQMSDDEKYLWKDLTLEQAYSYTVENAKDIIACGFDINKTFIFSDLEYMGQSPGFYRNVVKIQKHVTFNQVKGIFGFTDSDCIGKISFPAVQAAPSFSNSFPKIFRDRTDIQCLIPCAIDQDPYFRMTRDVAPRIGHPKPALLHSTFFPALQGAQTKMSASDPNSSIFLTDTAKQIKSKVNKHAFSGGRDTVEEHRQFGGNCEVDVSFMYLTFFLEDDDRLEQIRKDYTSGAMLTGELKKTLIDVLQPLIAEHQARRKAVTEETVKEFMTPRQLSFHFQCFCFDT
# Assay: direct ELISA
# Protocol: (§3) Specifically, for direct ELISA, a 96-well plate (Maxisorp, Thermo Fisher) was coated with WARS1 having a 1 μg/ml concentration of a recombinant protein derived from human, marmoset (NHP), mouse, rat, and pig, and then blocked with PBS containing 1% BSA at room temperature for 1 hour. The GKB101 antibody or a variant antibody thereof was diluted in a concentration-dependent manner, added to each coated well, reacted at room temperature for 1 hour, and then washed four times with PBST (PBS+Tween20). Each well was treated and reacted for 1 hour with an antibody (anti-Human IgG, cell signaling) to which HRP is attached, and then washed with PBST. Lastly, after developing with a TMB substrate (BD), its absorbance was measured at 490 nm (NIVO) (FIGS. 4a to 5).
row,Kd [pM],Binder
1,~1,B9
2,~1,B10
3,~1,B11
4,~1,B4
5,~1,B12
6,~1,B13
7,~1,B8

# Biological target: T1, human WARS1 recombinant protein
# Assay: direct ELISA
# Protocol: as §3
row,Kd [pM],Binder
1,~1,B9
2,~1,B10
3,~1,B11
4,~1,B12
5,~1,B13

# Biological target: T3, rat-derived WARS1 recombinant protein (rat, UniProt Q6P7B0 1-481, limits assumed)
# T3 construct: Recombinant, His-tagged (detected with anti-His tag antibody); construct not described; also called rat WARS1
# T3 sequence (looked up): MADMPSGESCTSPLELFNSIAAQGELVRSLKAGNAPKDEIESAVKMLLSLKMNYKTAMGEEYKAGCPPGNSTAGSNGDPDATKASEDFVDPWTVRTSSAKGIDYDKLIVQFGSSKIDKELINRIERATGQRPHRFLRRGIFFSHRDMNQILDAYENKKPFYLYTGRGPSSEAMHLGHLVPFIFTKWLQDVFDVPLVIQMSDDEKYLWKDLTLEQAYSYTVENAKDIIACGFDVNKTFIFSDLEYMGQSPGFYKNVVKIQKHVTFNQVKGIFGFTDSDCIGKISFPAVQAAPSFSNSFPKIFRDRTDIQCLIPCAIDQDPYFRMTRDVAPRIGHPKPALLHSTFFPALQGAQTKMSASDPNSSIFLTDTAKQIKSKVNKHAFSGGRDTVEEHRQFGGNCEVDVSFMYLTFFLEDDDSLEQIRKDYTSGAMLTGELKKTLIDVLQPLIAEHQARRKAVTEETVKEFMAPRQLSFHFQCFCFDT
# Assay: direct ELISA
# Protocol: as §3
row,Kd [pM],Binder
1,~1,B9
2,~1,B10
3,~1,B11
4,~1,B4
5,~1,B5
6,~1,B12
7,~1,B13
8,~1,B8

# Biological target: T4, pig-derived WARS1 recombinant protein (pig) (UniProt K9IVV5)
# T4 sequence: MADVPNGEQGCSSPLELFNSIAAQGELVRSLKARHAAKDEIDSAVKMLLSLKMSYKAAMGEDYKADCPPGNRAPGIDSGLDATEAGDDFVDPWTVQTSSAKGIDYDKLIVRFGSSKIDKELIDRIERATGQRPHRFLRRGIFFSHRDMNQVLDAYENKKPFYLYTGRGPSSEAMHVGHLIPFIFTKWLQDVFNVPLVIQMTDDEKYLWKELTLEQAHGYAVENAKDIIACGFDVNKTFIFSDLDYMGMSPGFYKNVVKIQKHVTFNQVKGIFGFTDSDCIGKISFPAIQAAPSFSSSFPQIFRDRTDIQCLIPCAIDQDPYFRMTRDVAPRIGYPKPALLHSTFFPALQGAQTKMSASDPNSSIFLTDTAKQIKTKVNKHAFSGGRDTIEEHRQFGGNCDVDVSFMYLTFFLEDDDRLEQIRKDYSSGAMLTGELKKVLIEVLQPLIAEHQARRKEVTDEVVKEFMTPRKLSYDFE
# Assay: direct ELISA
row,Kd [pM],Binder
1,1000,B11
2,1000,B4
3,1000,B14
4,1000,B13
5,1000,B8

# Biological target: marmoset (NHP)-derived WARS1 recombinant protein (marmoset (NHP)) (UniProt U3CR73)
# Assay: direct ELISA
row,Kd [pM],Binder
1,1,B10
2,1,B12

# Biological target: T2, mouse-derived WARS1 recombinant protein
# Assay: western blot; recombinant protein, J774A.1 culture supernatant, mouse serum
# Protocol: as §1, §2
row,binding result,Binder
1,binds,B15
2,binds,B1
3,binds,B2
4,binds,B3
5,binds,B16
6,binds,B5
7,binds,B14
8,binds,B6
9,binds,B7

# Biological target: T3, rat-derived WARS1 recombinant protein
# Assay: western blot; recombinant protein
# Protocol: as §1, §2
row,binding result,Binder
1,binds,B15
2,binds,B1
3,binds,B2
4,binds,B3
5,binds,B16
6,binds,B14
7,binds,B6
8,binds,B7

# Biological target: T1, human WARS1 recombinant protein
# Assay: cell-based or functional assay
row,secretion of TNF-α in mouse macrophage J774A.1 cells [%],Binder
1,≥ 40,B15
2,≥ 40,B10
3,≥ 40,B11
4,≥ 40,B16
5,≥ 40,B14
6,≥ 40,B13
